Drawing on patent publication US20140308301A1, this text covers median MFIR (MFI of CD44 mAb divided by MFI of control mAb) and internalization of cell surface CD44 (reduction of MFI of Alexa647-conjugated RG7356 on CLL cells for 1 substance.

Test [1] deals with human CD44 (human) (UniProt P16070). The test can be described thus: flow cytometry, Alexa647-RG7356 on CD19+CD5+ CLL B cells (n=59).
Test [2] shares this target. Put plainly: cell-based or functional assay.
Test [3] shares this target. The test can be described thus: flow cytometry, Alexa647-RG7356 on CD19+ normal B cells of healthy adults (n=8). For orientation: Flow cytometry measures light scatter and fluorescence of single cells or particles in a stream.
For test [4] the target is unchanged. The test can be described thus: flow cytometry, Alexa647-RG7356 on CLL B cells with unmutated IGVH gene.
Test [5] shares this target. The test can be described thus: flow cytometry, Alexa647-RG7356 on CLL B cells with low or no ZAP-70 expression.
For test [6] the target is unchanged. The test can be described thus: flow cytometry, Alexa647-RG7356 on CLL B cells with mutated IGVH gene.
The target is the same in test [7]. The test can be described thus: flow cytometry, Alexa647-RG7356 on CLL B cells with ZAP-70 expression.

On to “humanized anti-CD44 monoclonal antibody (RG7356, Roche)”, for which the median MFIR (MFI of CD44 mAb divided by MFI of control mAb) turned out to be 132 in test [1]; 112 in test [3]; 161 in test [4]; 119 in test [5]; 118 in test [6]; 161 in test [7]. Moreover, in test [2], the internalization of cell surface CD44 (reduction of MFI of Alexa647-conjugated RG7356 on CLL cells at 37 C, flow cytometry) is over 40%.
